Series [1] concerns the target Recombinant human tropoelastin lacking domain 26A (human). Briefly: ELISA.
For series [2] the target is unchanged. Briefly: SPR. (In general: Surface plasmon resonance follows binding to a sensor surface in real time, without labels.)
In series [3] the target is Human fibrillin-1 fragment PF2 (human) (UniProt P35555). Briefly: ELISA. Background: In an ELISA, binding on a coated surface is turned into a signal by an enzyme label.
Series [4] concerns the target Full-length human fibulin-5 (residues 42–448) (human) (UniProt Q9UBX5). Briefly: ELISA.
The target of series [5] is Human fibrillin-1 N-terminal fragment PF1, encoded by exons 1–11 (residues 31–489) (human) (UniProt P35555). Briefly: ELISA.
Human fibrillin-1 N-terminal fragment PF1, encoded by exons 1–11 (residues 31–489) (human), sequence (P35555 31-489): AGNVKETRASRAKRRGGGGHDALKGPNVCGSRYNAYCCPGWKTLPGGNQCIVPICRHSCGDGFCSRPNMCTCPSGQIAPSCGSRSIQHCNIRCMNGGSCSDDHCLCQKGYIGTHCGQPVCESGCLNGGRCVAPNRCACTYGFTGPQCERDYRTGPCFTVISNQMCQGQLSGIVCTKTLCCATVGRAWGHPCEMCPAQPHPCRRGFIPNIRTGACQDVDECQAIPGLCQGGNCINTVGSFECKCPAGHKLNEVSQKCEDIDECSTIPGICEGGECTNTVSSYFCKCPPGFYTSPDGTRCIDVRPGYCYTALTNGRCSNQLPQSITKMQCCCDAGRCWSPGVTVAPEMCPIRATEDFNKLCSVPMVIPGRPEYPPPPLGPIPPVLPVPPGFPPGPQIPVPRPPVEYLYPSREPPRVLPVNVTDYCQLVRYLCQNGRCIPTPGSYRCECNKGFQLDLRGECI
For series [6], the target named is Full-length human fibulin-5 (residues 42–448) (human) (UniProt Q9UBX5). As to the kind of experiment: ELISA. The source holds these as a separate data set.
Series [7] addresses PF1 variant with the Marfan mutation T101A (human, UniProt P35555 31-489, T101A). As to the kind of experiment: ELISA.
Series [8] deals with PF1 variant with the Marfan mutation R62C (human, UniProt P35555 31-489, R62C). Briefly: ELISA.
PF1 variant with the Marfan mutation R62C, sequence (P35555 31-489 R62C): as the sequence (P35555 31-489) above, with R32C counted along it
Series [9] has as its target PF1 variant with the Marfan mutation S115C (human, UniProt P35555 31-489, S115C). Briefly: ELISA.
Series [10] concerns the target Recombinant human tropoelastin lacking domain 26A (human). Briefly: ELISA. This is another data set of the same source.
The series “SEC-MALS” deals with the molecule itself. Briefly: SEC-MALS.

Read-outs that look alike come from different tables or passages of the source.

PF1 variant with the Marfan mutation T101A, sequence (P35555 31-489 T101A): as the sequence (P35555 31-489) above, with T71A counted along it
PF1 variant with the Marfan mutation S115C, sequence (P35555 31-489 S115C): as the sequence (P35555 31-489) above, with S85C counted along it
Human fibrillin-1 fragment PF2 (human), sequence (P35555 45-2731): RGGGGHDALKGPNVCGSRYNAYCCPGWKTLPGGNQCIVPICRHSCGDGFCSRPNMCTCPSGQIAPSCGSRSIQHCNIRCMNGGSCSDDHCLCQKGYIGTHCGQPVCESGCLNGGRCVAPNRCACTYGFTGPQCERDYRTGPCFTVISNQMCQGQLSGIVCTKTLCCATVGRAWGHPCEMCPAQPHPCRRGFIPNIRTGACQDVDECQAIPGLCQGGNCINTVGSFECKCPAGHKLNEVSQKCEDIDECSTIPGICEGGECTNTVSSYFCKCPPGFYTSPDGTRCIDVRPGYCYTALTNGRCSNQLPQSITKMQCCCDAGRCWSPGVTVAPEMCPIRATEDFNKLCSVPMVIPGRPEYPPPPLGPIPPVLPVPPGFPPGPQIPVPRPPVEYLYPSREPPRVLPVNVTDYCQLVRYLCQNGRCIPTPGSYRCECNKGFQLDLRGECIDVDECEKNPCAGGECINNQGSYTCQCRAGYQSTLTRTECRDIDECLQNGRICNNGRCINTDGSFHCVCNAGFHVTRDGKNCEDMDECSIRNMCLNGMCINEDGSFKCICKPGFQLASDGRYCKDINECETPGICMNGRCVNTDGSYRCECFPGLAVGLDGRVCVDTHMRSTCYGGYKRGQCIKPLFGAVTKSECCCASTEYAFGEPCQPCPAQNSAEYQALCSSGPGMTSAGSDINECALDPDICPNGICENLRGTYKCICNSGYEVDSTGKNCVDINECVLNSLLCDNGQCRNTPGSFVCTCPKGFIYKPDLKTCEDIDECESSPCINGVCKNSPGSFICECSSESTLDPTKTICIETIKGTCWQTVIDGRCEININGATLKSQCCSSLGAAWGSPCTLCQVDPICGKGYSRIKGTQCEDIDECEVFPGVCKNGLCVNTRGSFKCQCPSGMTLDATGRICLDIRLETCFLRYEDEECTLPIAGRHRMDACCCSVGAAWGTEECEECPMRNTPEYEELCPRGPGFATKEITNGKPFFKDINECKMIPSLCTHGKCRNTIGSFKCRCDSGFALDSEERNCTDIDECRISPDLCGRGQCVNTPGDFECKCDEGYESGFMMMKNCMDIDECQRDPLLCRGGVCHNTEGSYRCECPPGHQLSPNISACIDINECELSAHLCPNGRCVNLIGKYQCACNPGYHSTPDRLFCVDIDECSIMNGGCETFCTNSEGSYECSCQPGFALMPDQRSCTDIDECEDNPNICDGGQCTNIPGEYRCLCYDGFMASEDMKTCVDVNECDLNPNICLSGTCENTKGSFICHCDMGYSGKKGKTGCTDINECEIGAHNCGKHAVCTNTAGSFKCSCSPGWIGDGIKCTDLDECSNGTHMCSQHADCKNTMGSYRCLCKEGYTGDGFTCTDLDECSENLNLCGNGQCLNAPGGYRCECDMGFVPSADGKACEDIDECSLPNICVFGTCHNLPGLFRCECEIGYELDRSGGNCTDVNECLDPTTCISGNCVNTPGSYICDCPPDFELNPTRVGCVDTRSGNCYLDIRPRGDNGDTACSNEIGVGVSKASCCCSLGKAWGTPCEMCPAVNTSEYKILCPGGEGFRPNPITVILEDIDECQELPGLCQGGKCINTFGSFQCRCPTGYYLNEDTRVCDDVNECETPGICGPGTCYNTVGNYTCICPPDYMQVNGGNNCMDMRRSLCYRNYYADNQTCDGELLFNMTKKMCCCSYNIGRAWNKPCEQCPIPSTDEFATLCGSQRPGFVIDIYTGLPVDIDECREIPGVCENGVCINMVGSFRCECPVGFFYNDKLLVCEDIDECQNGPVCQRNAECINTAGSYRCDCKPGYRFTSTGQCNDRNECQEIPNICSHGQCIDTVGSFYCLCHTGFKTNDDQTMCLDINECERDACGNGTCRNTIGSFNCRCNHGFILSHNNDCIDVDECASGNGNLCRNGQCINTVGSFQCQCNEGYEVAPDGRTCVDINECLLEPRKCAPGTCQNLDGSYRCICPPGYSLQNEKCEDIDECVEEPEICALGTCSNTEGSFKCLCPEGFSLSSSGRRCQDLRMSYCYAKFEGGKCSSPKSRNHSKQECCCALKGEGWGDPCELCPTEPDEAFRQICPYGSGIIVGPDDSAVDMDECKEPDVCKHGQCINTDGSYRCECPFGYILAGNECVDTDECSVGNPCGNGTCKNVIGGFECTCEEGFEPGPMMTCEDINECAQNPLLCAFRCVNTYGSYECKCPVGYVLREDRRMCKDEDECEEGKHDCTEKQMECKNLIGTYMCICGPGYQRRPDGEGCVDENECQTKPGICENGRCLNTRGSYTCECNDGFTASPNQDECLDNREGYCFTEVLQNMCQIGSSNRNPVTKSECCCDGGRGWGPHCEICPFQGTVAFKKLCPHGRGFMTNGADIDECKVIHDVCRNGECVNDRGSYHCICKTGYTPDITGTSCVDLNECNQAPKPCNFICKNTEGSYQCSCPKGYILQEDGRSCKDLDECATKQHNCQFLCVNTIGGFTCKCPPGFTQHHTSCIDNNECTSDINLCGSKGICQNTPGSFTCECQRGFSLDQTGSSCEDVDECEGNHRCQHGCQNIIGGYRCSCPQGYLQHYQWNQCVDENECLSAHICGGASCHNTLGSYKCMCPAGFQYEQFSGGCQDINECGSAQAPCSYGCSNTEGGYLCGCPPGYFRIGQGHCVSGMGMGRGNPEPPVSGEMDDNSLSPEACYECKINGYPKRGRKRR

On to “Fibulin-5 domain pair F5-E4+5 (residues 207–287) (from UniProt Q9UBX5 207-287) (domain or fragment)”, for which the Kd (as a rule, the equilibrium constant for the complex coming apart) in [1] is 452 nM.

For the molecule “Full-length fibulin-5 with the cutis laxa mutation C217R (from UniProt Q9UBX5 42-448) (natural protein)”, in series [2], the Kd worked out at 865 nM, the koff (usually a measure of how fast the partners let go of each other) was 0.0046 s⁻¹ and the kon (commonly the rate constant with which the complex forms) came to 8400 M⁻¹ s⁻¹.

“Full-length fibulin-5 with the cutis laxa mutation S227P (from UniProt Q9UBX5 42-448) (natural protein)”: in [2], the Kd stood at 3420 nM, the koff was 0.0093 s⁻¹ and the kon was determined as 20000 M⁻¹ s⁻¹.

Regarding “Full-length human fibulin-4 (residues 26–418) (from UniProt O95967 26-443) (natural protein)”, the values for the Kd in series [3] and in series [1] were 194 nM and 131 nM, respectively.

Turning to “Full-length human fibulin-5 (residues 42–448) (from UniProt Q9UBX5 42-448) (natural protein)”, in [2], the dissociation constant Kd is 64 nM, the dissociation rate constant (koff) is 0.0013 s⁻¹ and the kon is 44000 M⁻¹ s⁻¹.

Regarding “Human full-length lysyl oxidase (from UniProt P28300 22-417) (enzyme)”, the Kd in series [4] was 338 nM; in series [1], 49 nM; in series [5] it was 26 nM; in series [6], 304 nM.

B1: Fibulin-5 domain pair F5-E1+2 (residues 42–167) (domain or fragment)
chain: DIDECRTIPEACRGDMMCVNQNGGYLCIPRTNPVYRGPYSNPYSTPYSGPYPAAAPPLSAPNYPTISRPLICRFGYQMDESNQCVDVDECATDSHQCNPTQICINTEGGYTCSCTDGYWLLEGQCL
modifications: biotinylated where it was the soluble ligand of a solid phase assay
With B1, the binding result in series [7], in [8] and in [9] was “binds” each time. In series [10], the Kd is 332 nM.

B2: Fibulin-5 domain pair F5-E6FC (residues 288–448) (domain or fragment)
chain: DINECEHRNHTCNLQQTCYNLQGGFKCIDPIRCEEPYLRISDNRCMCPAENPGCRDQPFTILYRDMDVVSGRSVPADIFQMQATTRYPGAYYIFQIKSGNEGREFYMRQTGPISATLVMTRPIKGPREIQLDLEMITVNTVINFRGSSVIRLRIYVSQYPF
modifications: biotinylated where it was the soluble ligand of a solid phase assay
For B2, the binding result in series [7], in series [8] and in series [9] was “binds” throughout. In addition, in [10], the Kd stood at 965 nM.

B3: Full-length human fibulin-4 (residues 26–418) (natural protein)
chain: SPQDSEEPDSYTECTDGYEWDPDSQHCRDVNECLTIPEACKGEMKCINHYGGYLCLPRSAAVINDLHGEGPPPPVPPAQHPNPCPPGYEPDDQDSCVDVDECAQALHDCRPSQDCHNLPGSYQCTCPDGYRKIGPECVDIDECRYRYCQHRCVNLPGSFRCQCEPGFQLGPNNRSCVDVNECDMGAPCEQRCFNSYGTFLCRCHQGYELHRDGFSCSDIDECSYSSYLCQYRCINEPGRFSCHCPQGYQLLATRLCQDIDECESGAHQCSEAQTCVNFHGGYRCVDTNRCVEPYIQVSENRCLCPASNPLCREQPSSIVHRYMTITSERSVPADVFQIQATSVYPGAYNAFQIRAGNSQGDFYIRQINNVSAMLVLARPVTGPREYVLDLEMVTMNSLMSYRASSVLRLTVFVGAYTF
modifications: biotinylated (sulfosuccinimidyl 2-(biotinamido)-ethyl-1,3-dithiopropionate) where it was the soluble ligand of a solid phase assay
As to B3, the stoichiometry N (in general, a count of units in the complex or per binding partner) in “SEC-MALS” stood at 2.

B4: N-terminal four domains of fibulin-4 (residues 26–217) (domain or fragment)
chain: SPQDSEEPDSYTECTDGYEWDPDSQHCRDVNECLTIPEACKGEMKCINHYGGYLCLPRSAAVINDLHGEGPPPPVPPAQHPNPCPPGYEPDDQDSCVDVDECAQALHDCRPSQDCHNLPGSYQCTCPDGYRKIGPECVDIDECRYRYCQHRCVNLPGSFRCQCEPGFQLGPNNRSCVDVNECDMGAPCEQRCFNSYGTFLCRCHQGYELHRDGFSCS
modifications: biotinylated where it was the soluble ligand of a solid phase assay
In the case of B4, the “stoichiometry N” value in “SEC-MALS” worked out at 2.

(Values after paper PMC2782046 (The Journal of Biological Chemistry, 2009).)
